Experiments:
LRP4-Myc = molecular target: T1, LRP4-Myc (UniProt Q9QYP1 21-1905); assay: solid phase binding: purified LRP4-Myc (name as in the legend) coated on plate, bound AP activity with pNPP
T1 construct: whole, on cells; also called Myc-tagged full length LRP4; not shown: Myc tag of pcDNA3.1-MycHis; His tag of pcDNA3.1-MycHis
Experimental: FIG. 6A-G. Direct interaction between LRP4 and MuSK. […] Flag-MuSKect immobilized on beads were incubated with condition media of cells expressing the extracellular domains of LRP4 (LRP4N-Myc) or the empty vector (control) in the presence or absence of neuronal agrin. Precipitated LRP4 was analyzed by immunoblot with anti-Myc antibody. […] FIG. 6B is a quantitative analysis of LRP4N-Myc and Flag-MuSK. Data shown were mean±SEM, n=3; *, p <0.05 in comparison with the no-agrin group. […] Purified LRP4-Myc was coated on Maxi-Sorp Immuno Plates, which were incubated with MuSK-AP. Bound AP was measured with pNPP as substrate. Data shown were mean±SEM. n=4. FIG. 6D is a Scatchard plot of data in FIG. 6C. Y axis represents the ratio of bound to free MuSK-AP whereas X axis represents the concentration of bound MuSK-AP. […] Experiments were done as in FIG. 6A except condition medium of cells expressing the extracellular domain of LRP6 was used. […] HEK293 cells were transfected with LRP4 and/or Flag-MuSK. Lysates were incubated with anti-Flag antibody, and resulting immunocomplex was analyzed for LRP4 and Flag. Lysates were also probed to indicate equal amounts of indicated proteins. […]
Solid phase binding assay. […] Coated wells were incubated with purified AP fusion proteins and the AP activity was measured using pNPP as substrate.

LRP4N-Myc (rat) [1] = molecular target: LRP4N-Myc (rat) (UniProt Q9QYP1); assay: solid phase binding of MuSK-AP to coated LRP4, Scatchard plot
Sequence of LRP4N-Myc (rat) (Q9QYP1 21-1723): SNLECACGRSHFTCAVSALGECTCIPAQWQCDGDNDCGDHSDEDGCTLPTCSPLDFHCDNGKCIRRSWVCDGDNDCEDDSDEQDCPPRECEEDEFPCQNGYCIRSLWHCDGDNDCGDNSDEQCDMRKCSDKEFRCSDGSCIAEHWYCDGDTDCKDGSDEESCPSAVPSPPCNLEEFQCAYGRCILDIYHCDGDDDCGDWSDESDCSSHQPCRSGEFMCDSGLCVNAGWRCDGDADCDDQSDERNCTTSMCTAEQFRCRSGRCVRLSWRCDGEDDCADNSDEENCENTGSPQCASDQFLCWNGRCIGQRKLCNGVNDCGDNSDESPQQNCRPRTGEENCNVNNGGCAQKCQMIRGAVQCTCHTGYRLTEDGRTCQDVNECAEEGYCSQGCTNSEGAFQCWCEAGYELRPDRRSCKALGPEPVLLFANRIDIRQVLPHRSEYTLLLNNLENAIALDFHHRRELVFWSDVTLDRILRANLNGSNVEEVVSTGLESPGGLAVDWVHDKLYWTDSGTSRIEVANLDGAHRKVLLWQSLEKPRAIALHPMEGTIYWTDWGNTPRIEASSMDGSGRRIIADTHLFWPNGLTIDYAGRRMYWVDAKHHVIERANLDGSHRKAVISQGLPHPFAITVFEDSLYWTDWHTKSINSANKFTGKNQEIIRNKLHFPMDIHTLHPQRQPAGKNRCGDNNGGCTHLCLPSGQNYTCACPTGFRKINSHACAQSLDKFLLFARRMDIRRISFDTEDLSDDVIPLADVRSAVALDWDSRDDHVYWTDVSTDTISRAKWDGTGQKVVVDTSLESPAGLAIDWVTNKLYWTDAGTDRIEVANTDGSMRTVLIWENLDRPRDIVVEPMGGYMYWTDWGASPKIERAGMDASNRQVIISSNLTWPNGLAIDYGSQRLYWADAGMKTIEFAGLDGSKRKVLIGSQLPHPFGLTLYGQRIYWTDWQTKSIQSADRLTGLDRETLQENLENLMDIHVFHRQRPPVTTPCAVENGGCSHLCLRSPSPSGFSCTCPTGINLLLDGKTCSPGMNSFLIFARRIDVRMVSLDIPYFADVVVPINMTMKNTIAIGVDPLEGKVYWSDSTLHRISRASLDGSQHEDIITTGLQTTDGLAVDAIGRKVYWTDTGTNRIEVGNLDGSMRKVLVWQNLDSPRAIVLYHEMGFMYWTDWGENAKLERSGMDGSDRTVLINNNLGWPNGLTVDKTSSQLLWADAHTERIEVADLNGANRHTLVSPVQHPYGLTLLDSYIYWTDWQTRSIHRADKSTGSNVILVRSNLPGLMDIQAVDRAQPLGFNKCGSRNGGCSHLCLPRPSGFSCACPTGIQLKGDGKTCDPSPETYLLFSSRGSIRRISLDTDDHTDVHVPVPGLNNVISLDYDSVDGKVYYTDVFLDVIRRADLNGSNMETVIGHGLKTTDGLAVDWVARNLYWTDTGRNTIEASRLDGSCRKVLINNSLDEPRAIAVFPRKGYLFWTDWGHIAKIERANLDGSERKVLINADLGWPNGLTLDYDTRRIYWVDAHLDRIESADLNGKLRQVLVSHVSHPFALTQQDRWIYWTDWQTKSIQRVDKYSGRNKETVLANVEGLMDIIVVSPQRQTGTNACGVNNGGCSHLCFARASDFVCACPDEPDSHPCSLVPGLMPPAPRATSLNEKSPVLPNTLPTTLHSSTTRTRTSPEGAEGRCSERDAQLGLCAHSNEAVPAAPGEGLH

LRP4N-Myc (rat) [2] = molecular target: LRP4N-Myc (rat) (UniProt Q9QYP1); assay: solid phase binding: purified LRP4 (legend: LRP4-Myc; paragraph 111: LRP4N-Myc) coated on plate, bound AP activity with pNPP
LRP4N-Myc (rat) [3] = molecular target: LRP4N-Myc (rat) (UniProt Q9QYP1); assay: solid phase binding of nAgrin-AP to coated LRP4, Scatchard plot
[4] = molecular target: T2, full length LRP4 (pcDNA-LRP4) (UniProt Q9QYP1 21-1905, limits assumed); assay: intact cell binding on transfected C2C12 myoblasts, BCIP/NBT staining quantified
T2 construct: whole, on cells; Expressed in transfected C2C12 myoblasts or HEK293 cells; also called exogenous LRP4
T2 sequence (Q9QYP1 21-1905 limits assumed): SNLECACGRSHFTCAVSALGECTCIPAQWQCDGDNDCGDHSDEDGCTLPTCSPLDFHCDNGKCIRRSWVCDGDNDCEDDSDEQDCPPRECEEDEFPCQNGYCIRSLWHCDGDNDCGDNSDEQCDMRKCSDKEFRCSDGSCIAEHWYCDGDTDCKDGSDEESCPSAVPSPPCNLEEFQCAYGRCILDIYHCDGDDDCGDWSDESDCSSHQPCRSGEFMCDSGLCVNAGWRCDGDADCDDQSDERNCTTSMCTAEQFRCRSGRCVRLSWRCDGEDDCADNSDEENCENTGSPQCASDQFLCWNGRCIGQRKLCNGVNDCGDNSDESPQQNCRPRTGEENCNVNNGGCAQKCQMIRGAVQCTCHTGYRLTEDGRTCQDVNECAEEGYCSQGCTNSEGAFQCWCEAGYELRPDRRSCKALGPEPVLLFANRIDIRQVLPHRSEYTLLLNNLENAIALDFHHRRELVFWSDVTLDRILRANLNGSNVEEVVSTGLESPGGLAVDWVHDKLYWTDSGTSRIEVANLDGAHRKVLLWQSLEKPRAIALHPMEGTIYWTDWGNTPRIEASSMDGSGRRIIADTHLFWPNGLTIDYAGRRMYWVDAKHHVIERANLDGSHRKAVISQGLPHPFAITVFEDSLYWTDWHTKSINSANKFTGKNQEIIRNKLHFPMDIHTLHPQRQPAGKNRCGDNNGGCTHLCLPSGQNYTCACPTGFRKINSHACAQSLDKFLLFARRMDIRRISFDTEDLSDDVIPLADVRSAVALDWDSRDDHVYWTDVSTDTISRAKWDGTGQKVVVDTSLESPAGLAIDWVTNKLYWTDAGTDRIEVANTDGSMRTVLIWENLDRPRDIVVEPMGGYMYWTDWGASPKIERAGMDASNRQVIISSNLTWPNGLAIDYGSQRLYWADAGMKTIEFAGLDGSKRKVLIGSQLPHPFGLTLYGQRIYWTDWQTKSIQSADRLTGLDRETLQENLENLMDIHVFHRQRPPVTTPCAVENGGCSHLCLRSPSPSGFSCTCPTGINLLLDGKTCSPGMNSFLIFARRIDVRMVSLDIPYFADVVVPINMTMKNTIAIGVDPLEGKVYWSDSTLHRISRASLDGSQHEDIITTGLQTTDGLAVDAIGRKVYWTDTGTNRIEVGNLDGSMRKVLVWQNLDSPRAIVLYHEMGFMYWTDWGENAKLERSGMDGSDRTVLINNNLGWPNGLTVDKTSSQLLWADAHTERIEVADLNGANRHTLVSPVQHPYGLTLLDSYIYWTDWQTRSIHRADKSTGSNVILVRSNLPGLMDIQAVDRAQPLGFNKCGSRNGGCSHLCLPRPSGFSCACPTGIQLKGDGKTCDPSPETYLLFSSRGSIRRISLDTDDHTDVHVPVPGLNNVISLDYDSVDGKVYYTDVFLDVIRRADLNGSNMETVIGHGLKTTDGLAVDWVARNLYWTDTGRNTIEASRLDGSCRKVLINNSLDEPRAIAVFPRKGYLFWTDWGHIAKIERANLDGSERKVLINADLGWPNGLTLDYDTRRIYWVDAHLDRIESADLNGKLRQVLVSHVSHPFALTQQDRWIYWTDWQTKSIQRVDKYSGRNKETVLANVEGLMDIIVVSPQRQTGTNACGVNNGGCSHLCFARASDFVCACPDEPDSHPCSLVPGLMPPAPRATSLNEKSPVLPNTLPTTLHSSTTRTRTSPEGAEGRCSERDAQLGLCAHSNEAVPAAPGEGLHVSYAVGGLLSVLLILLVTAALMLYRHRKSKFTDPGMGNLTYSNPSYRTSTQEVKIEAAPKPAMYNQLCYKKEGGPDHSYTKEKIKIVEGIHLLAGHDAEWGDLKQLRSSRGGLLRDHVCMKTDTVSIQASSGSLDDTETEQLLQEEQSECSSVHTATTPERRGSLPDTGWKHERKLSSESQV
Experimental: FIG. 4A-G. Expression of LRP4 enables binding activity for neuronal agrin and MuSK signaling. […] C2C12 myoblasts were transfected by empty vector (control), LRP4 and/or Flag-MuSK. 36 hr after transfection, myoblasts were incubated with AP alone, mAgrin-AP or nAgrin-AP for 90 min at room temperature. Endogenous AP was inactivated by heating and bound AP was visualized in cells by staining with BCIP/NBT. FIG. 4B is a quantification of data in FIG. 4A. Data shown were mean±SEM. n=6; *, P<0.05 in comparison with mAgrin-AP of the same group or nAgrin-AP in the control group. FIG. 4C and FIG. 4D show nAgrin-AP bound to HEK293 cells expressing LRP4, but not those expressing LRP5. HEK293 cells were transfected without (control) or with LRP4-Myc (FIG. 4C) or LRP5-Myc (FIG. 4D). 36 hr after transfection, transfected cells were incubated with nAgrin-AP or mAgrin-AP. In some experiments, control cells were incubated with nAgrin-AP. After heat inactivation of endogenous AP, lysates were assayed for transfected AP using pNPP as substrate. […] In FIG. 4E, lysates were incubated with anti-Flag antibody, and resulting immunocomplex was analyzed with anti-phosphotyrosine antibody 4G10. […] FIG. 4G is a quantitative analysis of data in FIG. 4E and FIG. 4F. MuSK and Abl phosphorylation was quantified by using the ImageJ software. […]

T1 sequence (Q9QYP1 21-1905): as the sequence (Q9QYP1 21-1905 limits assumed) above

Question: What does the source list for “MuSK-AP (from UniProt P05187 23-511) (receptor)”?
Answer: EC50 (read off the curve) (LRP4-Myc): 0.3 nM; Kd (LRP4N-Myc (rat) [1]): 0.45 nM

Question: Which results are given for “nAgrin-AP (from UniProt P25304 1145-1940) (ligand)”?
Answer: EC50 (read off the curve) (LRP4N-Myc (rat) [2]): 0.4 nM; Kd (LRP4N-Myc (rat) [3]): 0.5 nM

B1: AP alone (enzyme, human, UniProt P05187 23-511, looked up)
chain: IIPVEEENPDFWNREAAEALGAAKKLQPAQTAAKNLIIFLGDGMGVSTVTAARILKGQKKDKLGPEIPLAMDRFPYVALSKTYNVDKHVPDSGATATAYLCGVKGNFQTIGLSAAARFNQCNTTRGNEVISVMNRAKKAGKSVGVVTTTRVQHASPAGTYAHTVNRNWYSDADVPASARQEGCQDIATQLISNMDIDVILGGGRKYMFRMGTPDPEYPDDYSQGGTRLDGKNLVQEWLAKRQGARYVWNRTELMQASLDPSVTHLMGLFEPGDMKYEIHRDSTLDPSLMEMTEAALRLLSRNPRGFFLFVEGGRIDHGHHESRAYRALTETIMFDDAIERAGQLTSEEDTLSLVTADHSHVFSFGGYPLRGSSIFGLAPGKARDRKAYTVLLYGNGPGYVLKDGARPDVTESESGSPEYRQQSAVPLDEETHAGEDVAVFARGPQAHLVHGVQEQTFIAHVMAFAACLEPYTACDLAPPAGTTDAAHPG
notes: Control protein; also called control (empty pAPtag-5)
Question: Does B1 bind [4]?
Answer: Result: no binding (tested: 5 nM (not printed on the sheet))

Question: Does B1 bind (LRP4-Myc)?
Answer: Result: no binding (tested: 1000 nM)

— patent US20160187355A1 (AUGUSTA UNIVERSITY RESEARCH INSTITUTE, published 2016)
